“And” between values parts separate entries of the source, which are not always exact repeats. Identical values can stand only once.
Key:
[1] = target: the molecule itself; assay: SAXS; free endophilin-A1-BAR at 2 mg/ml in buffer B (20 mM Bicine pH 9, 100 mM NaCl), 283 K; monodisperse; mass from forward scattering, Porod volume, fit with the crystallographic dimer
[2] = target: the molecule itself; assay: SAXS; free endophilin-A1-BAR at 3, 4 and 6 mg/ml in buffer B (20 mM Bicine pH 9, 100 mM NaCl), 283 K; volume fractions of dimer, tetramer and a putative helical octamer fitted with OLIGOMER

B1: Endophilin-A1-BAR (residues 1-256 of mouse endophilin-A1) (domain or fragment, UniProt Q62420 1-256, looked up)
chain: MSVAGLKKQFHKATQKVSEKVGGAEGTKLDDDFKEMERKVDVTSRAVMEIMTKTIEYLQPNPASRAKLSMINTMSKIRGQEKGPGYPQAEALLAEAMLKFGRELGDDCNFGPALGEVGEAMRELSEVKDSLDMEVKQNFIDPLQNLHDKDLREIQHHLKKLEGRRLDFDYKKKRQGKIPDEELRQALEKFDESKEIAESSMFNLLEMDIEQVSQLSALVQAQLEYHKQAVQILQQVTVRLEERIRQASSQPRREYQ
notes: endophilin-A1, mouse, residues 1-256 (BAR domain with the N-terminal amphipathic helix); calculated mass of the monomer 29 kDa; Dimeric at 2 mg/ml, higher oligomers at higher concentrations; also called endophilin-A1 BAR domain; source: E. coli BL21 codon plus, purified (Ni-chelating sepharose, Superdex 200 gel filtration)
stoichiometry N [1]: 2 | stoichiometry N [2]: 4 and 8

From paper PMC4428356, “Endophilin-A1 BAR domain interaction with arachidonyl CoA” (Frontiers in Molecular Biosciences, 2014)
